Reference: patent US10202593B2, “Evolved sortases and uses thereof” (President and Fellows of Harvard College, priority 2013, dated 2019)
Like-named read-outs stand apart in the source and are kept apart here.

Columns and labels:
Type in all cases: biochemical
[1] = system: LPETG (Abz-LPETGK(Dnp)-CONH2); test: In vitro sortase kinetics HPLC assay, LPETG substrate
Protocol: (§1) See below for details on sortase expression and purification, and on the synthesis of Abz-LPETGK(Dnp)-CONH2 (SEQ ID NO: 19). […] Reactions were initiated with the addition of enzyme and incubated at 22.5° C. for 3 to 20 minutes before quenching with 0.5 volumes of 1 M HCl. Five to ten nmol of peptide from the quenched reactions were injected onto an analytical reverse-phase Eclipse XDB-C18 HPLC column (4.6×150 mm, 5 μm, Agilent Technologies) and chromatographed using a gradient of 10 to 65% acetonitrile with 0.1% TFA in 0.1% aqueous TFA over 13 minutes. Retention times under these conditions for the Abz-LPETGK(Dnp)-CONH2 (SEQ ID NO: 19) substrate, the released GKDnp peptide, and the Abz-LPETGGG-COOH (SEQ ID NO: 20) product were 12.8, 10.4, and 9.1 min, respectively. To calculate the percent conversion, the ratio of the integrated areas of the Abz-LPETGGG-COOH (SEQ ID NO: 20) and Abz-LPETGK(Dnp)-CONH2 (SEQ ID NO: 19) peptide Abs220 peaks was compared to a standard curve generated by mixing the product and starting peptide in known ratios. To determine […] and Km, reaction rates were fit to the Michaelis-Menten equation using OriginPro 7.0 software. All kinetics values reported represent the average of at least three measurements. Percent conversion was also calculated by using the ratio of the integrated areas of the GK(Dnp)-CONH2 and Abz-LPETGK(Dnp)-CONH2 peptide Abs355 peaks were compared directly (Example 5). To determine kcat and Km, LPETG, reaction rates were fit to the Michaelis-Menten equation using Microsoft Excel using the Solver add-in. To determine Km,GGG and KH, reaction rates were fit to the modified Michaelis-Menten, for which KH is as defined when KH<<Km,GGG.
(§2) Assays to determine eSrtA, eSrtA(2A-9) and eSrtA(4S-9) specificity were performed by preparing 10 μM stocks of Abz-LXEXGK(Dnp) (SEQ ID NO: 75) peptides in 300 mM Tris pH 7.5, 150 mM NaCl, 5 mM CaCl2, 5% v/v DMSO, and 100 mM Gly-Gly-Gly-COOH (GGG). Reactions were performed by adding eSrtA(2A-9) to a final concentration of 450 nM, eSrtA(4S-9) to a final concentration of 115 nM or eSrtA to a final concentration of 47.5 nM and a final volume of 100 μL, then incubating at 22.5° C. for 15 minutes. Reactions were quenched by the addition of 0.2 volumes of 5 M HCl, then were injected onto an analytical reverse-phase Eclipse XDB-C18 HPLC column (4.6×150 mm, 5 μm, Agilent Technologies) and chromatographed using a gradient of 10 to 65% acetonitrile with 0.1% TFA in 0.1% aqueous TFA over 13 minutes. Retention times under these conditions for the Abz-LPETGK(Dnp)-CONH2 (SEQ ID NO: 19) substrate, the released GKDnp peptide, and the Abz-LPETGGG-COOH (SEQ ID NO: 20) product were 12.8, 10.4, and 9.1 min, respectively, while the remaining Abz-LXEXGK(Dnp)-CONH2 (SEQ ID NO: 74) substrates varied in retention time between 9 and 13 minutes. To calculate the percent conversion, the ratio of the integrated areas of the GK(Dnp)-CONH2 and Abz-LPETGK(Dnp)-CONH2 (SEQ ID NO: 19) peptide Abs355 peaks were compared directly. Subsequent determination of kcat/Km and KH were performed as described for in vitro SrtA characterization.
(§3) In each case, rate constants were determined by measuring enzyme velocity at eight different substrate concentrations by HPLC assay, then fit using nonlinear regression to the Michaelis-Menten equation, yielding kcat and Km. KH was calculated by measuring enzyme velocity at 1 mM target substrate and eight different GGG concentrations by HPLC assay, then fitting the resulting curves using nonlinear regression to the modified Michaelis-Menten equation.

[2] = system: LPESG (Abz-LPESGK(Dnp)-CONH2); test: In vitro sortase kinetics HPLC assay, LPESG substrate; conditions: reversion of V182
Protocol: as §1, §2, §3

[3] = system: LAETG (Abz-LAETGK(Dnp)-CONH2); test: In vitro sortase kinetics HPLC assay, LAETG substrate; conditions: for preference for LPETG over LAETG / preference for LAETG over LPETG: ratio of kcat/KM; for increase in kcat/Km for LAETG as compared to LPETG / increased affinity (KM) for the LAETG substrate as compared to the LPETG substrate: FIG. 1; for Specificity (relative catalytic efficiency, fold): ratio of kcat/KM between 2A (LAETG) and wt (LPETG); for specificity (relative cat. Efficiency, fold): ratio of kcat/Km between 2A (LAETG) and wt (LPETG) substrates, favoured over disfavoured; for kcat, 1 mM LxExG (Hz) / kHydrolysis (Hz): GGG varied; for kHydrolysis (Hz): 1 mM
Protocol: as §1, §2, §3

[4] = substrate wt (LPETG), read-out: Km, LxExG
[5] = Example 5 variants, substrate wt (LPETG)
[6] = Example 5 variants, substrate wt (LPETG), read-out: Avg KM
[7] = Example 5 variants, substrate 2A (LAETG)
[8] = Example 5 variants, substrate 2A (LAETG), read-out: Avg KM
[9] = substrate 2A (LAETG), read-out: Km, LxExG
[10] = 1 mM 2A (LAETG) substrate, read-out: Km, GGG

B1: SrtA: wild-type Staphylococcus aureus sortase A (SEQ ID NO: 1) (protein)
chain: MKKWTNRLMTIAGVVLILVAAYLFAKPHIDNYLHDKDKDEKIEQYDKNVKEQASKDKKQQAKPQIPKDKSKVAGYIEIPDADIKEPVYPGPATPEQLNRGVSFAEENESLDDQNISIAGHTFIDRPNYQFTNLKAAKKGSMVYFKVGNETRKYKMTSIRDVKPTDVEVLDEQKGKDKQLTLITCDDYNEKTGVWEKRKIFVATEVK
modifications: S. aureus
KH ([1]; 1 mM LPETG): 14.3 ± 0.8 µM
KN ([1]; 1 mM LPETG, eight GGG concentrations): 14.3 ± 0.8 µM
Km ([1]; 1 mM LPETG, read-out: Km,GGG): 211 ± 8 µM
Khydrolysis ([1]; 1 mM wt (LPETG) substrate): 28.38 µM
kcat, 1 mM LxExG (Hz) ([1]; 1 mM wt (LPETG) substrate, GGG varied): 0.1731 Hz
Km ([1]; 1 mM wt (LPETG) substrate, read-out: Km, GGG): 291 µM
KH,LPETG ([1]; LPETG substrate): 14.3 ± 0.8 µM
Kcat (Hz) ([1]; Sub LPETG, 100 mM GGG): 1.5 ± 0.2 Hz
Km ([1]; Sub LPETG, 100 mM GGG, read-out: Km): 7600 ± 500 µM
Rel. Activity ([1]; Sub LPETG, kcat/Km of the enzyme's preferred substrate relative to kcat/Km on this substrate): 1
Kcat (Hz) ([1]; Table 2, Sub LPETG): 1.5 ± 0.2 Hz
Km ([1]; Table 2, Sub LPETG, read-out: Km): 7600 ± 500 µM
kL/KL/KH ([1]; substrate wt (LPETG)): 8.30E+06
kHydrolysis (Hz) ([1]; substrate wt (LPETG), 1 mM, GGG varied): 0.01657 Hz
kcat, 10 mM GGG (Hz) ([1]; substrate wt (LPETG)): 1.221 Hz
Km [1, 4]: 5180 µM

B2: eSrtA(4S-9) V182I (protein)
chain: QAKPQIPKDKSKVAGYIEIPDADIKEPVYPGPATREQLDRGVCFVEENESLDDQNISITGHTAIDRPNYQFTNLRAAKKGSMVYLKVGNETRKYKMTSIRNVKPTAVEVLDEQKGKDKQLTLITCDDYNFETGVWETRKIFVATEVK
selectivity and overall activity [2]: preserved selectivity but decreased overall activity

B3: eSrtA(2A-9) H104A (protein)
chain: QAKPQIPKDKSKVAGYIEIPDADIKEPVYPGPATREQLNRGVCFADENESLDDQNISIAGHTFIDRPNYQFTNLKAAKPGSMVYFKVGNETRIYKMTSIRKVHPNAVEVLDEQEGKDKQLTLVTCDDYNEETGVWESRKIFVATEVK
preference for LPETG over LAETG [3]: 60 fold

B4: eSrtA(2A-9) V182I (protein)
chain: QAKPQIPKDKSKVAGYIEIPDADIKEPVYPGPATREQLNRGVCFHDENESLDDQNISIAGHTFIDRPNYQFTNLKAAKPGSMVYFKVGNETRIYKMTSIRKVHPNAVEVLDEQEGKDKQLTLITCDDYNEETGVWESRKIFVATEVK
preference for LAETG over LPETG [3]: 85 fold
activity level for LAETG ([3]; reversion of V182): lowers the activity level for LAETG

B5: eSrtA(2A-4): 5mut + A104H K162R V168I I182V (protein)
chain: QAKPQIPKDKSKVAGYIEIPDADIKEPVYPGPATREQLNRGVSFHEENESLDDQNISIAGHTFIDRPNYQFTNLKAAKKGSMVYFKVGNETRKYKMTSIRNVRPTAVEILDEQKGKDKQLTLVTCDDYNEETGVWETRKIFVATEVK
Avg kcat (Hz) [1, 5]: 0.0501 Hz
Km [1, 6]: 5180 µM
kcat, 10 mM GGG (Hz) ([1]; substrate wt (LPETG)): 0.09356 Hz
Km [1, 4]: 11700 µM
Avg kcat (Hz) [3, 7]: 1.988 Hz
Km [3, 8]: 3720 µM
increase in kcat/Km for LAETG as compared to LPETG [3]: ~40 fold
preference for LAETG over LPETG [3]: 73 fold
Specificity (relative catalytic efficiency, fold) [3]: 55.11 fold
specificity (relative cat. Efficiency, fold) [3]: 73.05 fold
kcat, 10 mM GGG (Hz) ([3]; substrate 2A (LAETG)): 1.901 Hz
Km [3, 9]: 3250 µM

B6: eSrtA(2A-5): 5mut + R99H A104H K138I K162R I182V (protein)
chain: QAKPQIPKDKSKVAGYIEIPDADIKEPVYPGPATREQLNHGVSFHEENESLDDQNISIAGHTFIDRPNYQFTNLKAAKIGSMVYFKVGNETRKYKMTSIRNVRPTAVEVLDEQKGKDKQLTLVTCDDYNEETGVWETRKIFVATEVK
kcat, 10 mM GGG (Hz) ([1]; substrate wt (LPETG)): 0.1375 Hz
Km [1, 4]: 4900 µM
Khydrolysis ([3]; 1 mM 2A (LAETG) substrate): 615.9 µM
kcat, 1 mM LxExG (Hz) ([3]; 1 mM 2A (LAETG) substrate): 1.493 Hz
Km [3, 10]: 2810 µM
increase in kcat/Km for LAETG as compared to LPETG [3]: ~125 fold
increased affinity (KM) for the LAETG substrate as compared to the LPETG substrate [3]: ~116 fold
KH ([3]; GGG concentration at which hydrolysis and transpeptidation rates are equal, unit not given): 731±235
specificity (relative cat. Efficiency, fold) [3]: 115.7 fold
kL/KL/KH ([3]; substrate 2A (LAETG)): 5.29E+06
kHydrolysis (Hz) ([3]; substrate 2A (LAETG)): 0.324 Hz
kcat, 10 mM GGG (Hz) ([3]; substrate 2A (LAETG)): 1.41 Hz
Km [3, 9]: 433 µM

B7: 2A.6B: 5mut + R99K A104H K138V D160K* K162R I182V (protein)
chain: QAKPQIPKDKSKVAGYIEIPDADIKEPVYPGPATREQLNKGVSFHEENESLDDQNISIAGHTFIDRPNYQFTNLKAAKVGSMVYFKVGNETRKYKMTSIRKVRPTAVEVLDEQKGKDKQLTLVTCDDYNEETGVWETRKIFVATEVK
Khydrolysis ([3]; 1 mM 2A (LAETG) substrate): 12.49 µM
kcat, 1 mM LxExG (Hz) ([3]; 1 mM 2A (LAETG) substrate): 0.5359 Hz
Km [3, 10]: 642 µM
kL/KL/KH ([3]; substrate 2A (LAETG)): 1.81E+08
kHydrolysis (Hz) ([3]; substrate 2A (LAETG)): 0.01048 Hz
kcat, 10 mM GGG (Hz) ([3]; substrate 2A (LAETG)): 0.6977 Hz
Km [3, 9]: 310 µM

B8: eSrtA(2A-3): round 3 LAETG clone: eSrtA + K84R F122S D124G K134R K145E K162R V168I K177R I182F (protein)
chain: QAKPQIPKDKSKVAGYIEIPDADIREPVYPGPATREQLNRGVSFAEENESLDDQNISIAGHTSIGRPNYQFTNLRAAKKGSMVYFEVGNETRKYKMTSIRNVRPTAVEILDEQKGKDRQLTLFTCDDYNEETGVWETRKIFVATEVK
Avg kcat (Hz) [1, 5]: 2.653 Hz
Km [1, 6]: 2100 µM
Avg kcat (Hz) [3, 7]: 1.117 Hz
Km [3, 8]: 1620 µM
preference for LPETG over LAETG [3]: 1.4 fold
Specificity (relative catalytic efficiency, fold) [3]: 1.436 fold
reduced catalytic efficiency ([3]; round 3 clone, LAETG target): > 10 fold

B9: 2A.6C: 5mut + A104H K138P K152I D160K* K162R I182V (protein)
chain: QAKPQIPKDKSKVAGYIEIPDADIKEPVYPGPATREQLNRGVSFHEENESLDDQNISIAGHTFIDRPNYQFTNLKAAKPGSMVYFKVGNETRIYKMTSIRKVRPTAVEVLDEQKGKDKQLTLVTCDDYNEETGVWETRKIFVATEVK
kcat, 10 mM GGG (Hz) ([1]; substrate wt (LPETG)): 0.07676 Hz
Km [1, 4]: 1980 µM
Khydrolysis ([3]; 1 mM 2A (LAETG) substrate): 12.49 µM
kcat, 1 mM LxExG (Hz) ([3]; 1 mM 2A (LAETG) substrate): 0.5359 Hz
Km [3, 10]: 642 µM
increased affinity (KM) for the LAETG substrate as compared to the LPETG substrate [3]: ~61 fold
specificity (relative cat. Efficiency, fold) [3]: 61.61 fold
kL/KL/KH ([3]; substrate 2A (LAETG)): 1.91E+08
kHydrolysis (Hz) ([3]; substrate 2A (LAETG)): 0.01048 Hz
kcat, 10 mM GGG (Hz) ([3]; substrate 2A (LAETG)): 0.8129 Hz
Km [3, 9]: 343 µM
